Reference: patent US20240386992A1 (MAX DELBR CK CENTRUM F R MOLEKULARE MEDIZIN IN DER …, published 2024)

B1: LCA60 (antibody, V domains shown)
VH: EVQLLESGGGLVKPGGSLRLSCEASGLTFSNVWMSWVRQAPGKGLEWVGRIKRKSEGATTDYGAPVKGRFTLSRDDSKNTVYLQMNSLKIDDTAVYYCSTLTRGGDVWSSSYYFDYWGQGALVTVSS
VL: QSALTQPASVSGSPGQSITISCTGTSSDVGTYDLVSWYQQHPGKSPKLMIYADIKRPSGVSHRFSGSKSGNTASLTISGLQSADEADYYCCLYAGSSTSVIFGGGTKVT
B2: D12 (antibody, V domains shown)
VH: EVKLVESGGGLVKPGGSLKLSCAASGFTFSSYAMSWVRQTPEKRLEWVATISSGGTYTYYPDSVKGRFTISRDNAENTLYLQMSSLRSEDTAMYYCVRDGNSMDYWGQGTSVTVSS
VL: DIQMTQTTSSLSASLGDRVTIICRASQDINNYLNWYQQKPDGTVKLLIYYTSRLHSGVPSRFSGSGSGSDYSLTISNLEQEDIATYFCQQANTLPPTFGAGTKLELR

Biological target: MERS-CoV wild type receptor-binding domain (MERS-wtRBD), Twin Strep tagged (MERS-CoV)
Experiment: ELISA (FIG. 9)

Row | Binder | binding result
1 | B1 | binds
2 | B2 | binds
